No end group written: not given here. FLAG = FLAG tag

To fix the notation:
B1: Bad BH3 A4E, phage-displayed (peptide)
peptide: NLWEAQRYGRELRRMSDEFVDSFKKG
B2: Bad BH3 L2A, phage-displayed (peptide)
peptide: NAWAAQRYGRELRRMSDEFVDSFKKG
B3: Bad BH3 W3A, phage-displayed (peptide)
peptide: NLAAAQRYGRELRRMSDEFVDSFKKG
B4: Bad BH3 R10A, phage-displayed (peptide)
peptide: NLWAAQRYGAELRRMSDEFVDSFKKG
B5: Bad BH3 M15A, phage-displayed (peptide)
peptide: NLWAAQRYGRELRRASDEFVDSFKKG
B6: Bad BH3 F19A, phage-displayed (peptide)
peptide: NLWAAQRYGRELRRMSDEAVDSFKKG
B7: Bad BH3 Y8A, phage-displayed (peptide)
peptide: NLWAAQRAGRELRRMSDEFVDSFKKG
B8: Bad BH3 Q6A, phage-displayed (peptide)
peptide: NLWAAARYGRELRRMSDEFVDSFKKG
B9: Bad BH3 N1A, phage-displayed (peptide)
peptide: ALWAAQRYGRELRRMSDEFVDSFKKG
B10: Bad BH3 D17A, phage-displayed (peptide)
peptide: NLWAAQRYGRELRRMSAEFVDSFKKG
B11: Bad BH3 R7A, phage-displayed (peptide)
peptide: NLWAAQAYGRELRRMSDEFVDSFKKG
B12: Bad BH3 R14A, phage-displayed (peptide)
peptide: NLWAAQRYGRELRAMSDEFVDSFKKG
B13: Bad BH3 A5E, phage-displayed (peptide)
peptide: NLWAEQRYGRELRRMSDEFVDSFKKG
B14: Bad BH3 E18A, phage-displayed (peptide)
peptide: NLWAAQRYGRELRRMSDAFVDSFKKG
B15: Bad BH3 R13A, phage-displayed (peptide)
peptide: NLWAAQRYGRELARMSDEFVDSFKKG
B16: mNoxaA BH3 W23A, phage-displayed (peptide)
peptide: RAELPPEFAAQLRKIGDKVYCTASAP-{GGGT-g3(249-406)}
modifications: not fully specified (N-terminus)
B17: Bak BH3 L12A, phage-displayed (peptide)
peptide: PSSTMGQVGRQAAIIGDDINRRYDSE
B18: mNoxaA BH3 E3A, phage-displayed (peptide)
peptide: {FLAG}-RAALPPEFAAQLRKIGDKVYCTWSAP-{GGGT-g3(249-406)}
B19: mNoxaA BH3 P5A, phage-displayed (peptide)
peptide: {FLAG}-RAELAPEFAAQLRKIGDKVYCTWSAP-{GGGT-g3(249-406)}
B20: mNoxaA BH3 K14A, phage-displayed (peptide)
peptide: {FLAG}-RAELPPEFAAQLRAIGDKVYCTWSAP-{GGGT-g3(249-406)}
B21: mNoxaA BH3 S24A, phage-displayed (peptide)
peptide: {FLAG}-RAELPPEFAAQLRKIGDKVYCTWAAP-{GGGT-g3(249-406)}
B22: mNoxaA BH3 A10E, phage-displayed (peptide)
peptide: {FLAG}-RAELPPEFAEQLRKIGDKVYCTWSAP-{GGGT-g3(249-406)}
B23: mNoxaA BH3 K18A, phage-displayed (peptide)
peptide: {FLAG}-RAELPPEFAAQLRKIGDAVYCTWSAP-{GGGT-g3(249-406)}
B24: mNoxaA BH3 Y20A, phage-displayed (peptide)
peptide: RAELPPEFAAQLRKIGDKVACTWSAP-{GGGT-g3(249-406)}
modifications: not fully specified (N-terminus)
B25: mNoxaA BH3 wild type, phage-displayed (peptide)
peptide: RAELPPEFAAQLRKIGDKVYCTWSAP-{GGGT-g3(249-406)}
modifications: not fully specified (N-terminus)
B26: mNoxaA BH3 T22A, phage-displayed (peptide)
peptide: {FLAG}-RAELPPEFAAQLRKIGDKVYCAWSAP-{GGGT-g3(249-406)}
B27: Bak BH3 A13E, phage-displayed (peptide)
peptide: PSSTMGQVGRQLEIIGDDINRRYDSE
B28: mNoxaA BH3 E7A, phage-displayed (peptide)
peptide: {FLAG}-RAELPPAFAAQLRKIGDKVYCTWSAP-{GGGT-g3(249-406)}
B29: mNoxaA BH3 P6A, phage-displayed (peptide)
peptide: {FLAG}-RAELPAEFAAQLRKIGDKVYCTWSAP-{GGGT-g3(249-406)}
B30: mNoxaA BH3 A9E, phage-displayed (peptide)
peptide: {FLAG}-RAELPPEFEAQLRKIGDKVYCTWSAP-{GGGT-g3(249-406)}
B31: Bak BH3 G9E, phage-displayed (peptide)
peptide: PSSTMGQVERQLAIIGDDINRRYDSE
B32: mNoxaA BH3 F8A, phage-displayed (peptide)
peptide: {FLAG}-RAELPPEAAAQLRKIGDKVYCTWSAP-{GGGT-g3(249-406)}
B33: mNoxaA BH3 A25E, phage-displayed (peptide)
peptide: {FLAG}-RAELPPEFAAQLRKIGDKVYCTWSEP-{GGGT-g3(249-406)}
B34: Bak BH3 V8A, phage-displayed (peptide)
peptide: PSSTMGQAGRQLAIIGDDINRRYDSE
B35: mNoxaA BH3 C21A, phage-displayed (peptide)
peptide: {FLAG}-RAELPPEFAAQLRKIGDKVYATWSAP-{GGGT-g3(249-406)}
B36: Bid BH3 V15A, phage-displayed (peptide)
peptide: QEDIIRNIARHLAQAGDSMDRSIPPG
B37: mNoxaA BH3 Q11A, phage-displayed (peptide)
peptide: {FLAG}-RAELPPEFAAALRKIGDKVYCTWSAP-{GGGT-g3(249-406)}
B38: mNoxaA BH3 L4A, phage-displayed (peptide)
peptide: {FLAG}-RAEAPPEFAAQLRKIGDKVYCTWSAP-{GGGT-g3(249-406)}
B39: Bak BH3 I19A, phage-displayed (peptide)
peptide: PSSTMGQVGRQLAIIGDDANRRYDSE
B40: Bak BH3 I15A, phage-displayed (peptide)
peptide: PSSTMGQVGRQLAIAGDDINRRYDSE
B41: mNoxaA BH3 R1A, phage-displayed (peptide)
peptide: {FLAG}-AAELPPEFAAQLRKIGDKVYCTWSAP-{GGGT-g3(249-406)}
B42: mNoxaA BH3 R13A, phage-displayed (peptide)
peptide: {FLAG}-RAELPPEFAAQLAKIGDKVYCTWSAP-{GGGT-g3(249-406)}
B43: mNoxaA BH3 L12A, phage-displayed (peptide)
peptide: {FLAG}-RAELPPEFAAQARKIGDKVYCTWSAP-{GGGT-g3(249-406)}
B44: mNoxaA BH3 A2E, phage-displayed (peptide)
peptide: {FLAG}-REELPPEFAAQLRKIGDKVYCTWSAP-{GGGT-g3(249-406)}

Sequence of Recombinant human Bcl-xL with a 25 amino acid truncation of its C-terminus (human) (Q07817 1-208): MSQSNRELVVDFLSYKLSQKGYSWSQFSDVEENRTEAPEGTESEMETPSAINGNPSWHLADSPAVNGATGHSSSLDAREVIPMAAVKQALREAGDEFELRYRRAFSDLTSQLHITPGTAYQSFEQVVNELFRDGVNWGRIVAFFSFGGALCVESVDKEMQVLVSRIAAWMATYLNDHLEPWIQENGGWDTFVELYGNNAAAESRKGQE
Sequence of mouse Mcl-1 with truncations of 151 amino acid residues at its N-terminus and 23 residues at its C-terminus (mouse) (P97287 152-308): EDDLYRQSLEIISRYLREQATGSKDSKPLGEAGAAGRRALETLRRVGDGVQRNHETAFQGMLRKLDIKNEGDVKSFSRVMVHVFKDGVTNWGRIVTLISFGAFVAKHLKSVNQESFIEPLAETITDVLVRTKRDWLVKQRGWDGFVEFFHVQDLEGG

One assay addresses Recombinant human Bcl-xL with a 25 amino acid truncation of its C-terminus (human) (UniProt Q07817). Put plainly: competition phage ELISA. (In an ELISA, binding on a coated surface is turned into a signal by an enzyme label.)
For B1, the Fold/wt was 2 fold and the IC50 was 4 nM.
On to B2, for which the Fold/wt was determined as 2 fold and the half-inhibitory concentration (IC50) worked out at 4 nM.
Regarding B3, the Fold/wt came out at 1 fold and the half-inhibitory concentration (IC50) is 3 nM.
Turning to B4, the Fold/wt came to 1 fold and the IC50 came to 3 nM.
In the same order, the values of B5 are 3 fold and 6 nM.
For B6, the Fold/wt worked out at 12 fold and the concentration for half-maximal inhibition (IC50) worked out at 27 nM.
In the same order, the values of B7 are 3 fold and 7 nM.
Regarding B8, the Fold/wt was determined as 2 fold and the IC50 stood at 3 nM.
For B9, in that order: 1 fold and 2 nM.
Regarding B10, the Fold/wt was 7 fold and the IC50 came out at 16 nM.
For B11, the Fold/wt turned out to be 2 fold and the half-inhibitory concentration (IC50) is 4 nM.
With B12, the Fold/wt came out at 2 fold and the IC50 was found to be 4 nM.
In the same order, the values of B13 are 5 fold and 12 nM.
In the case of B14, the Fold/wt turned out to be 2 fold and the IC50 amounted to 4 nM.
B15: the Fold/wt was 1 fold and the IC50 was 3 nM.

Another assay addresses mouse Mcl-1 with truncations of 151 amino acid residues at its N-terminus and 23 residues at its C-terminus (mouse) (UniProt P97287). In words: competition phage ELISA.
The molecule B16 gave a Fold/wt of 2 fold and a concentration for half-maximal inhibition (IC50) of 69 nM.
In the same order, the values of B17 are 20 fold and 414 nM.
B18: the Fold/wt is 1 fold and the half-maximal inhibitory concentration (IC50) came out at 30 nM.
Regarding B19, the Fold/wt is 1 fold and the IC50 turned out to be 20 nM.
B20 showed a Fold/wt of 1 fold and an IC50 of 37 nM.
The molecule B21 gave a Fold/wt of less than 1 fold and an IC50 of 13 nM.
In the same order, the values of B22 are 1 fold and 43 nM.
For B23, in that order: less than 1 fold and 11 nM.
In turn, B24 showed a Fold/wt of 1 fold and a concentration for half-maximal inhibition (IC50) of 32 nM.
In the same order, the values of B25 are 1 fold and 39 nM.
For B26, in that order: less than 1 fold and 14 nM.
In the same order, the values of B27 are 17 fold and 356 nM.
B28: the Fold/wt came to 1 fold and the 50% inhibitory concentration (IC50) is 43 nM.
In the same order, the values of B29 are less than 1 fold and 8 nM.
For B30, in that order: 2 fold and 76 nM.
B31 displayed a Fold/wt of 21 fold and a half-inhibitory concentration (IC50) of 438 nM.
With B32, the Fold/wt came out at 1 fold and the half-maximal inhibitory concentration (IC50) was 24 nM.
The molecule B33 showed a Fold/wt of 1 fold and an IC50 of 33 nM.
For B34, in that order: 4 fold and 79 nM.
In the same order, the values of B35 are 1 fold and 19 nM.
The molecule B36 yielded a Fold/wt of 2 fold and an IC50 of 245 nM.
On to B37, for which the Fold/wt was determined as 1 fold and the half-inhibitory concentration (IC50) stood at 22 nM.
With B38, the Fold/wt is 1 fold and the 50% inhibitory concentration (IC50) is 24 nM.
For B39, in that order: 9 fold and 185 nM.
In the same order, the values of B40 are 25 fold and 517 nM.
For B41, in that order: 1 fold and 20 nM.
Molecule B42 gave a Fold/wt of 1 fold and an IC50 of 57 nM.
Take B43: the Fold/wt worked out at 2 fold and the concentration for half-maximal inhibition (IC50) amounted to 67 nM.
For B44, in that order: 1 fold and 22 nM.

Usually IC50 stands for the concentration at which inhibition is half-maximal.
